Measured values: article PMC5320947 (Angewandte Chemie (International ed. in English), 2016)

Assays:
[1] = test system: fed blood glucose levels in C57BL/6J mice; type: in vivo
[2] = design: species or system mice; conditions: mouse, in vivo

Row | Substance | duration of blood glucose reduction after a single s.c. injection [1] | area under the curve (AUC) [2] [%h/mL] | terminal elimination phase T1/2β [2] [h] | total body clearance (CL) rate [2] [mL/h]
1 | exendin–C–PMPC75k: exendin–4 C–terminal conjugate with zwitterionic PMPC, larger conjugate | up to 3 days |  |  | 
2 | green fluorescent protein [native GFP] |  | 14 | 4 | 7
